For this test, the target named is PI3KC3 complex II (PI3KC3-C2): VPS34, VPS15, BECN1, UVRAG (human) (UniProt Q8NEB9).
Chain of UniProt Q8NEB9 (Q8NEB9 whole entry, chain 1 of 4): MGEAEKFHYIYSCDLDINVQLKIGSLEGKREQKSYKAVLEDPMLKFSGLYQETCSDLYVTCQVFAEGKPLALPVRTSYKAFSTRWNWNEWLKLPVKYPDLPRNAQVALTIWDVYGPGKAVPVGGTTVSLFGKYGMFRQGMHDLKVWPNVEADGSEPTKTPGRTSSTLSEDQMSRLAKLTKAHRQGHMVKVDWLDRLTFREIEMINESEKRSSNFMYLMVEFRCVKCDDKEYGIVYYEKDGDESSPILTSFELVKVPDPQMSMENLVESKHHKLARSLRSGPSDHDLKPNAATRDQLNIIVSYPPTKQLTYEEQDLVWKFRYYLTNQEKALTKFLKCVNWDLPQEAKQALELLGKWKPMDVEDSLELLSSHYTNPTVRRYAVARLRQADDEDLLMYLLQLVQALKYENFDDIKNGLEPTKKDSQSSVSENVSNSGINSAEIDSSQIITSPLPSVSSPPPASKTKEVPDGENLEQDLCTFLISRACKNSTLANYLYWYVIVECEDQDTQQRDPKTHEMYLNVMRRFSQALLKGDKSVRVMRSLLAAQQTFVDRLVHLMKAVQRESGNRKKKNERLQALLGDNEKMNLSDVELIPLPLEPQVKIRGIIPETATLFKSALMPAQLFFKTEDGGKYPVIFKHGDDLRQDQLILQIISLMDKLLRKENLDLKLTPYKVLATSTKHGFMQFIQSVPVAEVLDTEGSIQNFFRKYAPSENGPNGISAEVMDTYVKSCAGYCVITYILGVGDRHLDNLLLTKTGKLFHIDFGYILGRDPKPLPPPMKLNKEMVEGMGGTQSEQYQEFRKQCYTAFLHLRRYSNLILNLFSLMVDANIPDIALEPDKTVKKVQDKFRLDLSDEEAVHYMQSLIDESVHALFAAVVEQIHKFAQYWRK
Chain of UniProt Q8NEB9 (Q99570 whole entry, chain 2 of 4, further chain): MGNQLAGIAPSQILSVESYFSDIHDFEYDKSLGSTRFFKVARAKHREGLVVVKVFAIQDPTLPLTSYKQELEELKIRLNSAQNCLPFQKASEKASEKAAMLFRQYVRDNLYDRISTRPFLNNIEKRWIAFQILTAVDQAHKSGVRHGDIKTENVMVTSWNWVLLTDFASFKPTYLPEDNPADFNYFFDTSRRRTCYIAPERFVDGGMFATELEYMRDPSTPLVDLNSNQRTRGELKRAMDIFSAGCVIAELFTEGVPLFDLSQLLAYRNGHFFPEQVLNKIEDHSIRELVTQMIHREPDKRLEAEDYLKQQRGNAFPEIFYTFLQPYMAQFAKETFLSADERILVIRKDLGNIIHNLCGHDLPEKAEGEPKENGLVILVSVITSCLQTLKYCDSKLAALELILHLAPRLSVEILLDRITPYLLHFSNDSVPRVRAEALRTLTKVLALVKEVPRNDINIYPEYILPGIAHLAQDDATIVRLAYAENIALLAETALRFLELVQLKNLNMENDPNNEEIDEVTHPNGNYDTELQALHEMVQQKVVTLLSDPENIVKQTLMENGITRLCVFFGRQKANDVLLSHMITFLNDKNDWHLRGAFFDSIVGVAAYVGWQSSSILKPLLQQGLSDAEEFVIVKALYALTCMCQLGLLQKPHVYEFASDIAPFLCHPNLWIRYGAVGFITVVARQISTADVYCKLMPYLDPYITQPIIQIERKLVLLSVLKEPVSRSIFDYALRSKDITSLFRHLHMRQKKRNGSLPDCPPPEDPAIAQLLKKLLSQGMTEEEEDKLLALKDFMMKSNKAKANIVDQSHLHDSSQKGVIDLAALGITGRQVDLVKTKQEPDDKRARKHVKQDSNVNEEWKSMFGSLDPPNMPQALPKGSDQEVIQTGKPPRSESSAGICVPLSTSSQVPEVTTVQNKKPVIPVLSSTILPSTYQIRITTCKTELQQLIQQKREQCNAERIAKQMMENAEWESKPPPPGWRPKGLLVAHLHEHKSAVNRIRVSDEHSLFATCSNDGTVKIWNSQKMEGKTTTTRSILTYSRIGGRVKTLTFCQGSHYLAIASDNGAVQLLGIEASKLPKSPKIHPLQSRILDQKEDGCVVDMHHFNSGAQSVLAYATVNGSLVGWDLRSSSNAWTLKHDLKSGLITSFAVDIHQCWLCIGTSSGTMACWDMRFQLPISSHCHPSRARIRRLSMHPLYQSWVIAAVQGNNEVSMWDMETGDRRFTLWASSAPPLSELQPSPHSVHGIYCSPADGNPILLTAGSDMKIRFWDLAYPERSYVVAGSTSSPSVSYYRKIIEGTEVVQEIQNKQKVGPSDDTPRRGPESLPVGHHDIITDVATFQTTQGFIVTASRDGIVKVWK
Chain of UniProt Q8NEB9 (Q14457 whole entry, chain 3 of 4, further chain): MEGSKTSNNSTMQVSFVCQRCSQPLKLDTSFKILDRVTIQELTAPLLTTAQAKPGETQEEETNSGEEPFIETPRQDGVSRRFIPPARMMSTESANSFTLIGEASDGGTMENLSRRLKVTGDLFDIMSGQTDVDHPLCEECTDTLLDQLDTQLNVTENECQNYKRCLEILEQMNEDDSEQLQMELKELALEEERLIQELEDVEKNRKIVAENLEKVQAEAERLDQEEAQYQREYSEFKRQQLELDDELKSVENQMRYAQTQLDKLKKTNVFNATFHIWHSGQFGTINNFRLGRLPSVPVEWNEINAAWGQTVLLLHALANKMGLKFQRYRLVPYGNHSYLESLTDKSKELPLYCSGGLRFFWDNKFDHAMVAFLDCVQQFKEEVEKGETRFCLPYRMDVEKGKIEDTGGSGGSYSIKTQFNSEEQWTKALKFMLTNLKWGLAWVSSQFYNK
Chain of UniProt Q8NEB9 (Q9P2Y5 whole entry, chain 4 of 4, further chain): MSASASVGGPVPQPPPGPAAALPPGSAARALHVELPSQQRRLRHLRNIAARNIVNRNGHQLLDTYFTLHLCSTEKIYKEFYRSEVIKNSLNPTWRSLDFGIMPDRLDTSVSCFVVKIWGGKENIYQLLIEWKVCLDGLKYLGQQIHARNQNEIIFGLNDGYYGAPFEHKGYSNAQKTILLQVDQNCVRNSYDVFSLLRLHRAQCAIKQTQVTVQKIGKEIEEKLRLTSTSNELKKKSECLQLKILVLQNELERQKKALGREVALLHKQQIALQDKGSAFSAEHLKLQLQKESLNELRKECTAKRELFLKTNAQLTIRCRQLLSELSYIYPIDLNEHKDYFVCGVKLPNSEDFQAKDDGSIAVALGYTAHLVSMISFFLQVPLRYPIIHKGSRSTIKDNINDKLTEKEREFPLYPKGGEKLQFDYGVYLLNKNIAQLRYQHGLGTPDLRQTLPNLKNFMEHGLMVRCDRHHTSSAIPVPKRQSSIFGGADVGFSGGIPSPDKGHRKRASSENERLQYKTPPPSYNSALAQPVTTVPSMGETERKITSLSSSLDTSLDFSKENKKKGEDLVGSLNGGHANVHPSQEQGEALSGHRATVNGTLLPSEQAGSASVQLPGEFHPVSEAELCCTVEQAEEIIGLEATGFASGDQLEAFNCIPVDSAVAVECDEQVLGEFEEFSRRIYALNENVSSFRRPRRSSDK

For “MBP tagged Rubicon PIKBD (PI3KC3-C2 binding domain) (from UniProt Q92622 1-972) (domain or fragment)”, the PI3KC3-C2 lipid kinase activity on SUVs (ADP-Glo), complexes at 12.5 nM amounted to 2 fold.
For “MBP tagged Rubicon MR (middle region) (from UniProt Q92622 1-972) (domain or fragment)” the value was 2 fold.

For the origin of these results see publication PMC6450660.
